In the supplement of paper PMC9170038:

Test system: MS2 coat protein
Experiment: apparent KD of MS2 coat protein; designed switch direction (-1 OFF switch, 1 ON switch): -1; higher = weaker reporter binding
Outline: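 The buffer was Tris-HCl pH 7.5 with KCl, MgCl2, BSA, DTT, tRNA and Tween-20. In it, SNAP-549-labelled MS2 coat protein was titrated in doubling steps from 0.7 or 1.5 nM to 3 µM over chip-bound RNA switches transcribed by stalled E. coli RNA polymerase on Illumina chips. Apparent KD is the per-design median over clusters of curve fits to normalised fluorescence.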

[1] = input ligand: microRNA oligo, concentration not stated
[2] = Eterna round: R95, input ligand: FMN 200 uM
[3] = Eterna round: R95, input ligand: microRNA oligo, concentration not stated
[4] = Eterna round: R95, input ligand: none

Sequence | apparent KD of MS2 coat protein (input ligand: FMN 200 uM) [nM] | apparent KD of MS2 coat protein [1] [nM] | apparent KD of MS2 coat protein (input ligand: none) [nM] | apparent KD of MS2 coat protein [2] [nM] | apparent KD of MS2 coat protein [3] [nM] | apparent KD of MS2 coat protein [4] [nM]
ACAAGCUUUUAGUUCGUCUUAUACACUCCUAAUAAGAAAACAUGAGGAUCACCCAUGUAAGAAAUAAGAACUCAUGU [Sesor Array 2 - Jieux - Sensor v3, turn-off variant 2] (Eterna round: R96, puzzle: Sensor v3, turn-off variant 2) | 186 | 297 | 143 | – | – | –
ACAAGCUUUUAGUUCGUCUUAUACACUCCUAAUAAGAAAACAUGAGGAUCACCCAUGUAAGAAAUAAGAACUCAUGU [Sesor Array 2 - Jieux - Sensor v3, turn-off variant 2] (puzzle: Sensor v3, turn-off variant 2) | – | – | – | 151 | 396 | 209
ACAAGCUUUUGCUCGUCUUACAUGAGGAUCACCCAUGUCGGGAACAUGCAUACAUACAACAUAUAAACAGUAACAGA [high energy, high % A (36%)] (Eterna round: R97, puzzle: Sensor, turn-off variant 1) | 20.1 | – | 21.2 | – | – | –
ACAAGCUUUUUGUUCGUCUUAUAAUAAUAAAUAAAGAUAACAUGAGGAUCACCCAUGUAACAAAGACGGACUCAUGU [Sesor Array 18 - Jieux - Sensor v3, turn-off variant 2] (puzzle: Sensor v3, turn-off variant 2) | – | – | – | 18.2 | 279 | 16.3
ACAAGCUUUUUGUUCGUCUUAUAAUAAUAAAUAAAUAUAACAUGAGGAUCACCCAUGUUAAGAAGACAACCUCAUGU [Sesor Array 25 - Jieux - Sensor v3, turn-off variant 2] (puzzle: Sensor v3, turn-off variant 2) | – | – | – | 157 | 606 | 305
ACAAGUUUUUUGUUUUUUAACAUGAGGAUCACCCAUGUAUUUUUAGAGGAUGUGGGAAUAAGAGCUCUUUGUCUUAU [JR_SV3TOV1_Sub097] (puzzle: Sensor v3, turn-off variant 1) | – | – | – | 38.6 | 90.3 | 41.2
ACACAGCGAGGAUAUACAUGAGGAUCACCCAUGUGGCGGCCGUUACGGUAGCGCUAGUGUAGAAGGCGCAUUGG [EX3 #36] (Eterna round: R97, puzzle: Exclusion 3) | 65.8 | – | 94.2 | – | – | –
ACAGACCGUGUUAGGAUAUUAUUUUACUCAAGUAGUGAGAAGGGACAUGAGGAUCACCCAUGUGUGGGAGUUGA [Eternabot (L2) Solution 42] (Eterna round: R97, puzzle: Brourd's mod of Exclusion 4) | 83 | – | 87 | – | – | –
ACAGUACUGCAAGGAUAUCGUUCUAGUUUAUUACGAGAAGGUGCUUUAGUUAUUUCUUUGGGUUGACAUGAGGAUCACCCAUGU [JR_ExcNG1_Sub056] (Eterna round: R96, puzzle: Exclusion NG 1) | 156 | 143 | 144 | – | – | –
ACAGUAUGAUCCGCUCAACAUGAGGAUCACCCAUGUGAUGACUAGGAUAUUAGUAGCCCGCGCAUUAAGAAGGAGUUACGAUUG [Eternabot solution 33] (Eterna round: R96, puzzle: Exclusion NG 3) | 20 | 13.9 | 23.6 | – | – | –
ACAUGACUGCUAGGAUAUAGAUGACAUGAGGAUCACCCAUGUUAUCCCAUGUUGACGGAAACCGACUAGAAGGAGCAACAUAUG [Ex NG2 #8] (Eterna round: R96, puzzle: Exclusion NG 2) | 64.7 | 30.6 | 46.5 | – | – | –
ACAUGAGGAUCACCCAUGUAAACAUGAUGGCUGAUGUAGAGCUAGGAUAUGAGUGACUUUCUAUCUCAGAAGGAGCUUGACUGG [Deportation 44 - Jieux - Exclusion NG 3] (Eterna round: R96, puzzle: Exclusion NG 3) | 30.1 | 26.9 | 45.2 | – | – | –
ACAUGAGGAUCACCCAUGUAAUCAUGAUGGCUGAUGUAGAGUCAGGAUAUGUGUGGCUUUCUAUCACAGAAGGGACAAGACUGG [Deportation 36 - Jieux - Exclusion NG 3] (Eterna round: R96, puzzle: Exclusion NG 3) | 42.9 | 26.2 | 34.9 | – | – | –
ACAUGAGGAUCACCCAUGUACAGGGUUUAGUUUCAUCGUUUGAAGGAUAUACUCAGUUAGUUGUUGUAGAAGGUCACAUUUUGG [JR_ExcNG3_Sub004] (Eterna round: R96, puzzle: Exclusion NG 3) | 138 | 108 | 126 | – | – | –
ACAUGAGGAUCACCCAUGUCAGGCGGGUCCACUCCGGCUGUUGAGGAUAUAGUUCGGUAUCCGCGCUAGAAGGUGAGGGCCGGC [Aenatbe mod 22] (Eterna round: R96, puzzle: Exclusion NG 3) | 16 | 15.3 | 18.2 | – | – | –
ACAUGAGGAUCACCCAUGUCAGGCUGGUCCGCUCCGGCUGUUGAGGAUAUAGCACGGUAUCCGCGCUAGAAGGUGAGGGCCGGC [Aenatbe mod 30] (Eterna round: R96, puzzle: Exclusion NG 3) | 21.6 | 18 | 22.5 | – | – | –
ACAUGAGGAUCACCCAUGUCCGGCUGGUCCGUCUCGGCUGUCGAGGAUAUAGCUCGGUGUCCGCGCUAGAAGGCGGGAGCUGGC [Aenatbe mod 67] (Eterna round: R96, puzzle: Exclusion NG 3) | 91.5 | 49.8 | 85.1 | – | – | –
ACAUGAGGAUCACCCAUGUCCGGCUGGUCUGUUCCGGUUGUCGAGGAUAUAGUUCGGUGUUCGCGCUAGAAGGCGGGAGCUGGA [Aenatbe mod 53] (Eterna round: R96, puzzle: Exclusion NG 3) | 177 | 130 | 157 | – | – | –
ACAUGAGGAUCACCCAUGUCCGGUUGGUCUGUUCCGGCUGUCGAGGAUAUAGUCCGGUGUUCGCGCUAGAAGGCGAGGGCUGGA [Aenatbe mod 47] (Eterna round: R96, puzzle: Exclusion NG 3) | 1180 | 227 | 397 | – | – | –
ACAUGAGGAUCACCCAUGUCCGGUUGGUUUUCUCCGGCUGUUGAGGAUAUAGUCCGGUAUCCGCGCUAGAAGGUGAGGGUUGGC [Aenatbe mod 12] (Eterna round: R96, puzzle: Exclusion NG 3) | 212 | 125 | 165 | – | – | –
ACAUGAGGAUCACCCAUGUGAAAAGAAUGGCUGACACAGAGAUAGGAUAUAUGUGCAUAUCAAACAUAGAAGGGUCAUGACUGG [Deportation 83 - Jieux - Exclusion NG 3] (Eterna round: R96, puzzle: Exclusion NG 3) | – | 23 | – | – | – | –
ACAUGAGGAUCACCCAUGUGAAACCAAUGGCUGACUUUGAGACAGGAUAUUCGUGCAUAUCAAACGAAGAAGGGUCAUUACUGG [Deportation 95 - Jieux - Exclusion NG 3] (Eterna round: R96, puzzle: Exclusion NG 3) | 56.8 | 41.1 | 46.8 | – | – | –
ACAUGAGGAUCACCCAUGUGGACGUAAUGGCUCAUGUAGAGUGAGGAUAUGUGAGACGAACGAGAACAGAAGGCACAAGACAGG [Deportation 7 - Jieux - Exclusion NG 3] (Eterna round: R96, puzzle: Exclusion NG 3) | 26.3 | 14.5 | 22.1 | – | – | –
ACAUGGGAGCGAGGAUAUAGCCCAUGUGAAGAACUAGAAGGCGCAGACAUGAGGAUCACCCAUGUGUUCAUGAGGAGGUGGACA (Eterna round: R96, puzzle: Exclusion NG 1) | 72.7 | 42.4 | 69.4 | – | – | –
ACAUGUAAUGCAGGAUAUCGGACACAUGAGGAUCACCCAUGUGACCAGAGGAAUUGCUAAGAGUCUGAGAAGGGUAUGUACAUG [Ex NG2 #52] (Eterna round: R96, puzzle: Exclusion NG 2) | 23.2 | 12.9 | 19 | – | – | –
ACAUGUAAUGCAGGAUAUUUUACACAUGAGGAUCACCCAUGUGACCAGAGGAAUUGCUAUGAGUAAAAGAAGGGUAUGUACAUG [Ex NG2 #57] (Eterna round: R96, puzzle: Exclusion NG 2) | – | 53.9 | – | – | – | –
ACAUGUAAUGUAGGAUAUUUUACACAUGAGGAUCACCCAUGUGACCAGAGGCUUUGCUAUGAGUAAAAGAAGGGUAUGUACAUG [Ex NG2 #59] (Eterna round: R96, puzzle: Exclusion NG 2) | – | 51.5 | – | – | – | –
